# Where no end group is shown, it is not given here.
# Legend:
# hGal-7 homodimer = biological target: T1, hGal-7 homodimer (Homo sapiens, UniProt P47929); assay: hGal-7 homodimer disruption, low-SDS native gel electrophoresis / Western blotting; assay type: biochemical; conditions: recombinant hGal-7 0.5 μM, increasing peptide concentrations
# T1 construct: made in house; host or cells: E. coli BL21 (DE3)
# Method: Production of recombinant hGal-7 and hGal-1. Human Gal-7 cDNA was cloned into pET-22b(+) using Ndel and HindIII restriction enzymes. Human pET-Gal-1 vector was generously donated by Dr. S. Sato (McGill University, QC, Canada). The proteins were produced in E. coli BL21 (DE3) cells at 37° C. Isopropyl p-D-1-thiogalactopyranoside (IPTG) (1 mM) was added to the bacterial culture at OD600nm=0.6-0.7 and then incubated for 4 h at 37° C. to allow protein production. Bacterial pellets were resuspended in lysis buffer (0.7 mg/mL lysozyme, 10 mM Tris pH 8, 100 mM NaCl, 1 mM EDTA, 1 mM DTT and a protease inhibitor cocktail) and then incubated for 1 h at 37° C. prior to centrifugation for 30 min at 15,000×g (4° C.). The supernatant was then filtered with 500 mL bottle top filter ([…]) (Corning®, New York, N.Y., USA) and then ran through a lactose-agarose column (Sigma®, St. Louis, Mo., USA). The protein was eluted in 1 mL fractions with 150 mM lactose solution. Purified fractions were analyzed by SDS-PAGE. The hGal-7 was then concentrated and purified using Centrifugal filter units (Amicon® Ultra-15, 10K) (EMD®, Etobicoke, ON) in 20 mM potassium phosphate at pH 7.1. All subsequent experiments with the recombinant proteins were performed in the same buffer solution unless mentioned otherwise. Brilliant Coomassie blue was purchased from BioRad® (Bio-Rad Laboratories®, Mississauga, ON, Canada). The recombinant human Bcl-2 protein fragment was purchased from Abcam® (Abcam®, Cambridge, UK, Cat #ab73696).
# Western blotting. For the apoptosis tests, whole-cell extracts were homogenized and resuspended in RIPA buffer (Thermo Fisher Scientific®, Rockford, Ill., USA) containing protease inhibitors (Roche®, Laval, QC, Canada). Equal amounts of whole-cell extracts (25 μg) were separated on SDS-PAGE and transferred onto nitrocellulose membranes (Bio-Rad Laboratories®). The membranes were first blocked with 5% milk [w/v] in TBS/0.5% Tween® 20 [v/v] for 1 h at room temperature and subsequently blotted overnight in a solution of TBS containing 3% BSA [w/v] and 0.5% Tween 20 [v/v]. The following antibodies were used: a rabbit anti-Poly-(ADP-ribose) polymerase (PARP)-1 (p25) polyclonal antibody (1:5000; Epitomics®, Burlingame, Calif., USA) and a mouse anti-β-actin (1:10000; Sigma-Aldrich®, St-Louis, Mo., USA). Secondary antibodies consisted of horseradish peroxidase-conjugated donkey anti-rabbit (GE Healthcare®, Buckinghamshire, England) and sheep anti-mouse (GE Healthcare®) IgG. Detection was performed using the enhanced chemiluminescence method (GE Healthcare®). For the recombinant protein tests, each peptide was dissolved and maintained in 20 mM potassium phosphate at pH 7.1. The recombinant proteins and peptide dilutions were pre-incubated for 1 h at 4° C. prior to gel migration. The native polyacrylamide gel was made without SDS to allow molecular weight differentiation between the dimer and monomer. The following antibodies were used: a goat anti-Gal-7 antibody (1:10000; R&D Systems®, Minneapolis, Minn., USA), a mouse anti-Gal-1 antibody (1:10000; Proteintech®, Chicago, Ill., USA) and a rabbit anti-Bcl-2 antibody (1:1000; Abeam®, Cambridge, UK). Secondary antibodies consisted of donkey anti-goat (R&D Systems®) or sheep anti-mouse and sheep anti-rabbit (GE Healthcare®) IgG. Detection was performed as described above.
# To determine whether these peptides could inhibit the formation of the hGal-7 homodimer, recombinant hGal-7 (0.5 μM) was incubated with increasing concentrations of hGal-7(13-25), hGal-7(85-102), hGal-7(95-108) or hGal 7(129-135) and the formation of homodimers was measured. To measure the ability of the peptides to disrupt the formation of hGal-7 dimers, a mild denaturing (low SDS) native gel electrophoresis, a commonly used approach to visualize monomer-dimer equilibrium, was used (FIG. 1A and FIG. 6).
# Jurkat T cells [1] = assay: FITC-labeled hGal-7 binding on Jurkat T cells, flow cytometry; assay type: cell-based; conditions: FITC-labeled hGal-7 0.1 μM pre-incubated with peptide, FIG. 4
# Method: FITC conjugation and hGal-7 binding assay. To assess hGal-7 binding onto Jurkat T cells, 5 μL of a 1.25 mg/mL fluorescein isothiocyanate (FITC)/DMSO solution was added to 300 μL of 1.7 μg/μL recombinant hGal-7 in a 0.1 M NaHCO3 pH 9.2 solution and incubated for 1 h at room temperature on a roller. FITC-labeled hGal-7 was then purified using a PD-10 Sepharose® column (GE healthcare) and eluted with PBS containing 0.01% [v/v] sodium azide. FITC-labeled hGal-7 (0.1 μM) was then pre-incubated with hGal-7(129-135) (or related peptides) in 20 mM potassium phosphate buffer pH 7.1 for 1 h at 4° C. Jurkat cells (5×10^5 cells per sample) were harvested in PBS-0.01% [v/v] sodium azide and incubated for 30 min on ice with the FITC-labeled hGal-7 with and without peptides. Cells were then washed with PBS-0.01% [v/v] sodium azide and resuspended in 400 μL of the same buffer and analyzed on a FACSCalibur® (BD Biosciences®).
# (§1) It was thus tested whether hGal-7(129-135) could modulate the binding of hGal-7 on Jurkat T cells, a cell model that is commonly used to test the pro-apoptotic activity of galectins. For this purpose, recombinant hGal-7 was labeled with fluorescein isothiocyante (FITC) and its binding on the surface of Jurkat T cells was measured by flow cytometry in absence or presence of increasing concentrations of hGal-7(129-135). […]
# Jurkat T cells [2] = assay: hGal-7-induced apoptosis of Jurkat T cells, PARP-1 cleavage by Western blotting; assay type: cell-based; conditions: 4 h at 37° C., serum-free RPMI, FIG. 5A
# Method: Western blotting. For the apoptosis tests, whole-cell extracts were homogenized and resuspended in RIPA buffer (Thermo Fisher Scientific®, Rockford, Ill., USA) containing protease inhibitors (Roche®, Laval, QC, Canada). Equal amounts of whole-cell extracts (25 μg) were separated on SDS-PAGE and transferred onto nitrocellulose membranes (Bio-Rad Laboratories®). The membranes were first blocked with 5% milk [w/v] in TBS/0.5% Tween® 20 [v/v] for 1 h at room temperature and subsequently blotted overnight in a solution of TBS containing 3% BSA [w/v] and 0.5% Tween 20 [v/v]. The following antibodies were used: a rabbit anti-Poly-(ADP-ribose) polymerase (PARP)-1 (p25) polyclonal antibody (1:5000; Epitomics®, Burlingame, Calif., USA) and a mouse anti-β-actin (1:10000; Sigma-Aldrich®, St-Louis, Mo., USA). Secondary antibodies consisted of horseradish peroxidase-conjugated donkey anti-rabbit (GE Healthcare®, Buckinghamshire, England) and sheep anti-mouse (GE Healthcare®) IgG. […]
# as §1
# Jurkat T cells [3] = assay: Apoptosis/toxicity of peptide alone in Jurkat T cells, Annexin V/PI; assay type: cell-based
# Method: FIG. 8A: Flow cytometry histogram showing propidium iodide (PI) (FL3) labeling of Jurkat T cells without or with 200 μM of hGal-7(129-135). FIG. 8B: Histogram showing the average percentage of Annexin-V (AV) positive Jurkat T cells in the presence of increasing concentrations of […]. FIG. 8C: Flow cytometry histogram showing PI (FL3) labeling of Jurkat T cells without or with 200 μM of PACAP28-38 FIG. 8D: Histogram showing the average percentage of AV-positive Jurkat T cells in the presence of increasing concentrations of PACAP28-38. The percentage of cell death was obtained as described above. Error bars represent standard deviation. Significance was calculated with respect to AF samples. Results are representative of three independent experiments.
# Apoptosis assays with Annexin V/PI staining. Apoptosis was measured by flow cytometry using FITC-labeled Annexin V (Biolegend®, San Diego, Calif., USA) and propidium iodide. Briefly, the corresponding dilutions of recombinant hGal-7 and hGal-7(129-135) peptides were pre-incubated for 1 h at 4° C. in serum-free RPMI 1640 medium. 2.5×10^5 Jurkat cells were then harvested in the same medium and incubated with their corresponding dilutions at 37° C. for 4 h. Cells were washed once in PBS and once in binding buffer (0.01 M HEPES, 0.14 M NaCl, 2.5 mM CaCl2, pH 7.4). Cells were then incubated for 15 min with Annexin V in the dark at room temperature. A total of 400 μL of binding buffer containing 0.25 μg/mL propidium iodide was added to the cells before analysis by flow cytometry.
# T1 sequence (P47929 2-136 limits assumed): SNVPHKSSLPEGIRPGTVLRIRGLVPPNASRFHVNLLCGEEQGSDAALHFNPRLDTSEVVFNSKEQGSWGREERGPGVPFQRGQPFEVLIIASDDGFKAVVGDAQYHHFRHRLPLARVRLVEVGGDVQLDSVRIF
Substance,disruption of hGal-7 homodimers (in words) (hGal-7 homodimer),fluorescent intensity of Jurkat T cells due to FITC-labeled hGal-7 binding (Jurkat T cells [1]),"inhibition of hGal-7-induced apoptosis, PARP-1 cleavage (Jurkat T cells [2])","toxicity in Jurkat T cells (Jurkat T cells [3]; PI labeling at 200 μM, Annexin V at increasing concentrations, FIGS. 8A to 8D)","induction of apoptosis by peptide alone (Jurkat T cells [3]; peptide alone, FIG. 8)"
"H-Asp-Gly-Phe-Lys-Ala-Val-Val-Gly-Asp-Ala-Gln-Tyr-His-His-NH2 (H-DGFKAVVGDAQYHH-NH2; listed as Homo sapiens) [hGal-7(95-108), peptide corresponding to residues 95-108 of hGal-7]",less potent than hGal-7(129-135),,,,
"H-Phe-Glu-Val-Leu-lle-Ile-Ala-Ser-Asp-Asp-Gly-Phe-Lys-Ala-Val-Val-Gly-NH2 (H-FEVLIIASDDGFKAVVG-NH2; listed as Homo sapiens) [hGal-7(85-102), peptide corresponding to residues 85-102 of hGal-7]",less potent than hGal-7(129-135),,,,
PACAP(28-38): control peptide selected based on similarity in amino acid length and minimal toxicity on the cell line (GKRYKQRVKNK) [reference compound],No such effect was observed,No such effect was observed,No such effect was observed,do not induce toxicity in Jurkat T cells,did not induce apoptosis in Jurkat T cells
"H-Ile-Arg-Pro-Gly-Thr-Val-Leu-Arg-Ile-Arg-Gly-Leu-Val-NH2 (H-IRPGTVLRIRGLV-NH2; listed as Homo sapiens) [hGal-7(13-25), peptide corresponding to residues 13-25 of hGal-7]",less potent than hGal-7(129-135),,,,
"L-A-S-V-R-I-F-NH2 (LASVRIF-NH2; listed as Homo sapiens) [[Ala^130]hGal-7(129-135), alanine substitute peptide of hGal-7(129-135)]",abrogates the ability of the peptide to disrupt hGal-7 homodimers,,,,
